Several values for one entry are separate records, joined by “and”; a condition that tells them apart may be missing. Equal values may be shown once. Values belong to the molecule of their own block, whether it stands above or below them.
Tests used:
[1] = in vivo; cited from earlier work
[2] = biological target: T1, αvβ3 (Homo sapiens, UniProt P05106+P06756); test: Direct competition assay, vitronectin binding to isolated αvβ3; details: isolated receptor
T1 construct: αVβ3 was purified from human placenta; from tissue; host or cells: human term placenta
T1 sequence (P06756 31-889 limits assumed): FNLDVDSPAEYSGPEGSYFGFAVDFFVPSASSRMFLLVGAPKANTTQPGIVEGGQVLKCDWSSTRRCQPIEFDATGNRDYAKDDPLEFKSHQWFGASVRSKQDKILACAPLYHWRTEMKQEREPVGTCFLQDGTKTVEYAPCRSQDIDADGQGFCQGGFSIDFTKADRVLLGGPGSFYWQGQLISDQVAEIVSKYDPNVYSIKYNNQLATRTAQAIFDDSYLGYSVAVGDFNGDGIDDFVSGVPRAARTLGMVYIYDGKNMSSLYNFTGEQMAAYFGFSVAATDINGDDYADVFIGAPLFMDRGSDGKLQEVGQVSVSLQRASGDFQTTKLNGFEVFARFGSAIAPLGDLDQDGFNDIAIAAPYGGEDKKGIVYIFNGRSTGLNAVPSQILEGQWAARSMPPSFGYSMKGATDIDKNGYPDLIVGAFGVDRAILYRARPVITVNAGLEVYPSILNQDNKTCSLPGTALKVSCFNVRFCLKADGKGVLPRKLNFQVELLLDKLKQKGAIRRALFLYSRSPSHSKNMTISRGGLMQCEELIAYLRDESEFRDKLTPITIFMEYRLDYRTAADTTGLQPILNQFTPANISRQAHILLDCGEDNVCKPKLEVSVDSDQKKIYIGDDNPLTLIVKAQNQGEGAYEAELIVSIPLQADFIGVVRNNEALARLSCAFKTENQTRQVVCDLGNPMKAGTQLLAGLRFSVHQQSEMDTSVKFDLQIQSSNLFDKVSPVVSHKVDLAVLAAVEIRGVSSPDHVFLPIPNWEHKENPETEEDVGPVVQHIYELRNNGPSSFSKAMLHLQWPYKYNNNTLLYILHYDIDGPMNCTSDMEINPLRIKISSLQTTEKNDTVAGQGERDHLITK
T1 sequence (P06756 891-1048 limits assumed): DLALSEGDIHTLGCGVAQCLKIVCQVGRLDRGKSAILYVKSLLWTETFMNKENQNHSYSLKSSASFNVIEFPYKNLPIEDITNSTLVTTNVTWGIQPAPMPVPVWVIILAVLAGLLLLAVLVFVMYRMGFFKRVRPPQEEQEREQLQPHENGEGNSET
T1 sequence (P05106 27-788): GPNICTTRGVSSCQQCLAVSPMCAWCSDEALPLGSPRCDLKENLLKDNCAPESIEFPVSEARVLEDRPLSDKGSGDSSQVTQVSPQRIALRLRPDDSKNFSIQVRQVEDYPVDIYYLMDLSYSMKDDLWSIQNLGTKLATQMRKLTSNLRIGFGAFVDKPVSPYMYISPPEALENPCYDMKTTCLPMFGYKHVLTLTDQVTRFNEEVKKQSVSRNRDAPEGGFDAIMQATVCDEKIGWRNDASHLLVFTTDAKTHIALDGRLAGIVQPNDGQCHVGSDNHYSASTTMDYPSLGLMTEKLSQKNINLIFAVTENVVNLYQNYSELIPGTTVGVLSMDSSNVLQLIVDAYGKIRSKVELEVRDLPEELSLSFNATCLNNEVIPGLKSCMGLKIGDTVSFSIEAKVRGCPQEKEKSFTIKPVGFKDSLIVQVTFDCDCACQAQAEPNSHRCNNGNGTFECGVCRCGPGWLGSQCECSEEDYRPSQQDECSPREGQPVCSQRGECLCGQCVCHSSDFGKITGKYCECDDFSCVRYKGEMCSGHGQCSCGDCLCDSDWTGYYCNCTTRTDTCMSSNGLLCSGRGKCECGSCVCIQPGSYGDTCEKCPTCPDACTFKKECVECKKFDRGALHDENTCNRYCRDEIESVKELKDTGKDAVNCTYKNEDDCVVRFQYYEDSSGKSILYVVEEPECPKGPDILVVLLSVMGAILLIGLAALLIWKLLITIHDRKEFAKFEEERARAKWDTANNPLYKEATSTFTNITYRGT
Procedure: The plate was washed once with buffer B (3% BSA (w/v), 100 mM NaCl, 1 mM MgCl2, 1 mM CaCl2, 10 mM MnCl2, 50 mM Tris-HCl; pH 7.4) and incubated 2 h at 20° C. in the same buffer.
After rinsing with buffer C (buffer B with BSA at 0.1% (w/v)) was added containing biotinylated ligand (1 μg ml^-1 end concentration) and serially diluted test peptides or proteins. After incubation (3 h, 30° C.), unbound ligand was washed from the plate by 3 rinses with buffer C, and incubation continued for 1 h with anti-biotin-alkaline phosphatase-conjugated antibody (1:10000 in buffer C) (Sigma) followed by PBS wash and detection of bound antibody with NBT-BCIP (Biorad) as substrate. ECM molecules and antibodies were routinely biotinylated and used in such an assay configuration.
Assays were routinely performed in triplicate or quadruplicate, and repeated at least 3 times to derive an IC50 from an unweighted sigmoid curve fit. Results were normalized against external control peptides to allow intra-assay comparison.

[3] = test system: M21-L, M21-L4 and M21-L-IIb cells; test: DNA synthesis ([3H]-thymidine incorporation) in M21 variant lines; assay type: cell-based, human; details: M21-L and M21-LGpIIb, FIG. 9 B, D
Procedure: (§1) Adherent melanoma cells were detached (0.05% Trypsin/0.02% EDTA). Washed cells were seeded into 96-well flat-bottom microtest plates (1×10^4 cells per well) and cultured without (control) or in the presence of serially diluted antibodies in RPMI medium with 10% FCS. After 48 h, cells were pulse labelled for 18 h (18.5 kBeq [^3 H]-thymidine per well) and harvested. Incorporated radioactivity was measured and expressed as counts per minute.

[4] = test system: M21 cells; test: DNA synthesis ([3H]-thymidine incorporation) in M21; assay type: cell-based, human; parameters: dose or concentration left out as unconfirmed
Procedure: as §1

[5] = test system: αvβ5 (UCLA-P3 cells); test: Cell attachment to vitronectin mediated by αvβ5 (UCLA-P3 cells); assay type: cell-based, human
Procedure: (§2) Cell Attachment Assays were as previously described (Goodman et al., 1991), using hexosaminidase activity (Landegren, 1984) to detect attached cells. Dilutions and cell suspensions were in attachment buffer (RPMI, 1% BSA, 25 mM HEPES; pH 7.4). Matrix proteins were coated onto 96- or 48-well plates, the wells were blocked with BSA and serially diluted MAbs were added to the wells followed by cells (2.5×10^4 -5×10^4). After 1 h at 37° C., non-adherent cells were washed away and attached cells counted against a standard curve run in parallel. Inhibition of attachment was calculated by using wells with no MAbs as reference. Typically, over 70% of added cells had attached to vitronectin at 1 h. Cell attachment to wells coated with BSA alone was routinely less than 5% of specifically attached cells.

[6] = test system: human melanoma and carcinoma cell lines; test: αV-mediated cell attachment to vitronectin, cell line panel; assay type: cell-based
Procedure: as §2

[7] = test system: M21-L cells; test: Flow cytometry (FACS) on M21-L; assay type: binding, human; details: relative to secondary antibody only
Procedure: (§3) Cells were harvested with EDTA, washed, and 10^6 cells in PBS-1% BSA were incubated with MAb (10 μg ml^-1; 20 min, 4° C.). After washing and labelling (20 min, 4° C.) with goat anti-mouse Ig-FITC (Becton Dickinson), cells were incubated with propidium iodide before flow cytometry analysis (EPICS Profile II, Coulter). Living cells were selected by appropriate gates on the side and forward scatter. Fluorescein was excited at 488 nm with an argon ion laser and the emitted fluorescence (525 nm) was recorded. In some experiments, M21-L cells were stained following a brief fixation and permeabilization step (70% ethanol; 5 min×-20° C.).

[8] = test system: M21 tumor foci; test: Lung colonization experimental metastasis assay; assay type: in vivo, BALB/C nu/nu mice
Procedure: (§4) For experimental lung metastasis, cells were harvested (0.05% Trypsin/0.02%EDTA) and were injected into the tail vein of nude mice (0.5×10^6 cells in 0.2 ml PBS++). 7 weeks later the animals were sacrificed, the lungs removed and fixed in a Bouins' solution, and the tumor foci on the surface of the lungs counted. For antibody treatment, harvested and washed cells were incubated with purified endotoxin free MAbs (70 μg per 10^6 cells 0.5 ml PBS++) for 30 min at 20° C. in an end-over-end rotator before dilution to 0.5×10^6 cells in 0.2 ml PBS and injection. Cells viability was assessed by Trypan blue dye exclusion before and after completing the injection schedule, where no significant difference was found (viability pre-injection=viability post injection ±5%). The tumor inhibition data was assessed using the 2-tailed Student T-test.

[9] = test system: M21-L4 cells; test: Flow cytometry (FACS) on M21-L4; assay type: binding, human; details: relative to secondary antibody only
Procedure: as §3

[10] = test system: M21 cells; test: M21 cell attachment to vitronectin; assay type: cell-based, human; details: maximal block
Procedure: as §2

[11] = test system: M21-L12 cells; test: Flow cytometry (FACS) on M21-L12; assay type: binding, human; details: relative to secondary antibody only
Procedure: as §3

[12] = test system: M21 tumors; test: Subcutaneous M21 tumor development in nude mice; assay type: in vivo, BALB/c nu/nu mice
Procedure: (§5) Tumor cells in exponential growth were harvested with EDTA, washed and examined for viability by trypan blue dye exclusion. Viability was between 96-99%. For primary tumor growth, cells (0.5×10^6 cells in 0.2 ml PBS++) were injected subcutaneously into the flanks of nude mice. Tumor growth was followed by measuring tumor diameters with callipers and the tumor volume was calculated using an approximated formula for a prolate ellipsoid: […]
(§6) where a is the longest axis of the tumor and b the shortest. A minimum of eight animals was used per group.
as §4

[13] = test system: M21-L-IIb cells; test: Flow cytometry (FACS) on M21-L-IIb; assay type: binding, human; details: relative to secondary antibody only
Procedure: as §3

[14] = test system: M21 cells; test: M21 cell attachment to laminin and collagen; assay type: cell-based, human; details: M21, FIG. 5
Procedure: as §2

[15] = test system: M21-L; test: Subcutaneous M21-L tumor development in nude mice; assay type: in vivo, BALB/c nu/nu mice; details: FIG. 7b
Procedure: as §5, §6, §4

[16] = test system: B16F10 cells; test: B16F10 cell attachment to vitronectin; assay type: cell-based; details: murine cell
Procedure: as §2

[17] = test system: M21 cells; test: Antibody-directed cellular cytotoxicity (ADCC) with BALB/c microglia; assay type: cell-based, human; details: up to 10^-7 M, murine microglia effector cells
Procedure: Preparation of BALB/C microglial cells and conditions for ADCC and antibody-effector cell mediated cytostasis (AECM) were essentially as described (Sutter et al., 1991). M21 cells were pulsed for 18 h with ^3 H-thymidine (18 kBq per 4×10^3 cells per well) and incubated on 96-well plates with BALB/C microglia (5×10^4 cells per well) in 200 μl DMEM/FCS (10%) in the presence of antibodies. After 48 hrs, [^3 H] label retained in the nuclear compartment of target cells was measured. MAb dependent cytotoxicity was calculated using the formula: [(experimental ccpm-spontaneous ccpm)/(maximum ccpm-spontaneous ccpm)]×100.

[18] = test system: purified αvβ3; test: ELISA on purified αvβ3; assay type: binding, human
[19] = test system: αvβ3 (WM164 and M21 cells); test: Cell attachment to vitronectin mediated by αvβ3 (WM164 and M21 cells); assay type: cell-based, human; details: FIG. 11
Procedure: as §2

[20] = test system: B16F10 cells; test: Flow cytometry (FACS) on B16F10; assay type: binding; details: murine cell
Procedure: as §3

[21] = test system: M21 cells; test: M21 cell proliferation assay; assay type: cell-based, human; parameters: dose or concentration left out as unconfirmed; details: M21, antibody (FIG. 8a)
Procedure: […] Growth and viability were estimated by Trypan blue dye exclusion. Activation was measured by the MTT assay as described above, and cell numbers were counted daily using a cell counter (Coulter electronics).

[22] = test system: M21 cells; test: Flow cytometry (FACS) on M21; assay type: binding, human
Procedure: as §3

[23] = test system: αvβ1 (V+B2 cells); test: Cell attachment to vitronectin mediated by αvβ1 (V+B2 cells); assay type: cell-based; details: FIG. 11
Procedure: as §2

[24] = test system: WM793 cells; test: WM793 cell attachment to vitronectin; assay type: cell-based, human; details: FIG. 4e,f
Procedure: as §2

[25] = test system: M21 cells; test: Complement dependent cytotoxicity (CDC); assay type: cell-based, human; details: not shown
Procedure: M21 cells (10,000) were plated in a 96-well plate with 50 μl of complete medium and 20 μl of antibodies. Rabbit serum (50 μl, 1:5; Behring) was added as source of complement and plate was incubated (37° C.; 60 min). Lysis was quantified by MTT technique (Mosmann, 1983). Percent of lysis was calculated using wells with 1% Tween-20 as 100% lysed controls, and without antibody as 0% lysed control.

[26] = test system: UCLA-P3 cells; test: Flow cytometry (FACS) on UCLA-P3; assay type: binding, human; details: relative to secondary antibody only
Procedure: as §3

[27] = test system: WM793 cells; test: Flow cytometry (FACS) on WM793; assay type: binding, human; details: relative to secondary antibody only
Procedure: as §3

Molecule: RGDS: RGD-peptide (SEQ ID NO:6)
serum half-life [1]: 8 min

Molecule: GRGDSPK [Gly-Arg-Gly-Asp-Ser-Pro-Lys]
IC50 [2]: ~2000 nM

Molecule: CC(=O)O[C@H]1C(=O)[C@@]2(C)[C@H]([C@H](OC(=O)c3ccccc3)[C@]3(O)C[C@H](OC(=O)[C@H](O)[C@@H](NC(=O)c4ccccc4)c4ccccc4)C(C)=C1C3(C)C)[C@]1(OC(C)=O)CO[C@@H]1C[C@@H]2O [Taxol]
DNA synthesis, positive control [3]: completely suppresses

IC50, attachment to vitronectin on αvβ5 (UCLAP3) ([5]; FIG. 4c,d): ~ 30 ng ml^-1
IC50, cell attachment mediated by αvβ5 (UCLA-P3 cells) ([5]; vitronectin, FIG. 11): ~ 0.1 μg ml^-1
IC50 in cellular assay [6]: ~ 100 ng ml^-1
IC50 ([6]; antibody MW 150,000, read-out: IC50, αV-mediated cell attachment): 0.3 to 1 nM
50% binding to αvβ3 in ELISA ([18]; screening ELISA): 10 to 20 ng/mL
EC50 ([18]; screening ELISA, read-out: 50% binding to αvβ3 in ELISA): 0.05 to 0.1 nM
IC50, αvβ3 attachment (WM164 and M21 cells) [19]: ~ 0.5 μg ml^-1
IC50, cell attachment mediated by αvβ1 (V+B2 cells) [23]: ~ 0.1 μg ml^-1
IC50, WM793 attachment to vitronectin [24]: ~ 60 ng ml^-1
B1: 17E6: murine IgG1 monoclonal antibody against human αv-integrin chain, from hybridoma 272-17E6 (DSM ACC2160) (antibody, V domains shown)
VH: QVQLQQSGAELAEPGASVKMSCKASGYTFSSFWMHWVKQRPGQGLEWIGYINPRSGYTECNEIFRDKATMTADTSSSTAYMQLSGLTSEDSAVYYCASFLGRGAMDYWGQGTSVTVSS
VL: DIQMTQTTSSLSASLGDRVIISCRASQDISNYLSWYQQKPDGTVKLLIFYTSKLHSGVPSRFSGSGSGTDYSLTISNLDQEDIATYFCQQGNTFPYTFGGGTKVEMR
thymidine incorporation in M21 cells [4]: no effect
initial attachment to vitronectin of cells reacting in FACS with 17E6 ([6]; hybridoma supernatants, FIG. 3): strongly blocked
Reactivity in flow cytometry, M21-L [7]: - (1-2 (-))
Tumor Take ([8]; 7 weeks after tail vein injection): 78
Number of Tumor Foci, Mean ± SEM ([8]; lung surface, 7 weeks): 8 ± 7.7
Number of Tumor Foci, Median ([8]; lung surface, 7 weeks): 5
reduction of numbers of tumor colonies ([8]; pre-incubation of M21 with antibody, tail-vein injection): 90%
% Control ([8]; tumor foci relative to M21 control): 9%
Reactivity in flow cytometry, M21-L4 [9]: ++ (4-9 (++))
block of M21 initial attachment to vitronectin [10]: ~ 85% and ~ 90%
Reactivity in flow cytometry, M21-L12 [11]: - (1-2 (-))
tumors and metastases at sacrifice ([12]; 6 months, lungs, liver, kidney, spleen, colon, stomach, body cavities): neither subcutaneous tumors nor metastases
tumors taken in the presence of antibody ([12]; M21 cells subcutaneously co-injected with antibody): 0/32
experiments in which subcutaneous development of M21 tumors was blocked ([12]; mouse, in vivo): 4/4
time animals remain tumor free ([12]; mouse, in vivo): > 6 months
Reactivity in flow cytometry, M21-L-llb (αllbβ3) [13]: - (1-2 (-))
cell attachment to other matrix substrates (laminin, collagen) [14]: lack of effect
subcutaneous M21-L growth / take [15]: unaffected
B16F10 attachment on vitronectin [16]: not affected
ADCC against M21 [17]: did not mediate ADCC
50% saturation in ELISA on isolated αvβ3 ([18]; FIG. 10): ~ 1 ng ml^-1
FACS reaction with B16F10 [20]: did not react
kinetic of cell growth and saturation density [21]: not greatly influenced
Reactivity in flow cytometry, M21 (αvβ3; αvβ5) ([22]; relative to secondary antibody only, MAb 10 μg ml^-1): ++ (4-9 (++))
FACS reaction with M21 ([22]; αv-expressing line): strongly
complement mediated lysis on M21 cells [25]: did not affect
Reactivity in flow cytometry, UCLA-P3 (αvβ5) [26]: +++ (>9 (+++))
Reactivity in flow cytometry, WM793 (αvβ3; αvβ5) [27]: +++ (>9 (+++))
